# B1: plasminogen fragments: plasminogen fragments comprising Kringles 1 to 4 produced by cleavage of plasminogen with PACE4 (protein)
# chain: VIMAENRKSSIIIRMRDVVLFEKKVYLSECKTGNGKNYRGTMSKTKNGITCQKWSSTSPHRPRFSPATHPSEGLEENYCRNPDNDPQGPWCYTTDPEKRYDYCDILECEEECMHCSGENYDGKISKTMSGLECQAWDSQSPHAHGYIPSKFPNKNLKKNYCRNPDRELRPWCFTTDPNKRWELCDIPRCTTPPPSSGPTYQCLKGTGENYRGNVAVTVSGHTCQHWSAQTPHTHNRTPENFPCKNLDENYCRNPDGKRAPWCHTTNSQVRWEYCKIPSCDSSPVSTEQLAPTAPPELTPVVQDCYHGDGQSYRGTSSTTTTGKKCQSWSSMTPHRHQKTPENYPNAGLTMNYCRNPDADKGPWCFTTDPSVRWEYCNL
# What was measured:
# [1] = General pharmacological test, effects on the respiratory and circulatory organs; type: in vivo; details: Beagle dog
# [2] = set-up: species or system mice; details: mouse, in vivo, iv
# [3] = tested on: Lewis lung cancer cells (LL/2); experiment: Test for inhibitory activity to growth of metastasized cancerous focus (weight of the lung); type: in vivo, C57B1 mice; details: n=6, control 0.44±0.28
# Protocol: The protein fragments prepared as described above were dissolved in a physiological saline and used as a sample for animal tests. As a system for estimating an inhibitory effect to growth of metastasized cancerous focus, cancer capable of metastasis and growth was transplanted to mice where distally metastasized cancerous focus was observed. Lung cancer cells (LL/2; Dainippon Seiyaku K.K.) were subcutaneously transplanted to mice at the back. The animals were bred until a primary cancerous focus grows up to a predetermined size and the primary focus was then removed surgically. […] As a control, mice were administered with a physiological saline alone as used for dissolving the lyophilized sample (test for inhibitory activity to growth of metastasized cancerous focus).
# After completion of each test, mice were dissected. The number of nodes on the lung surface, in case of test for inhibitory activity to metastasis and growth of cancer, or a weight of the lung, for test for inhibitory activity to growth of metastasized cancerous focus, was measured respectively and compared with control groups (Mann Whetney U test). […] In test for inhibitory activity to growth of metastasized cancerous focus, the lung was measured 0.44±0.28 g (n=6) for the control group while it was measured 0.23±0.08 g (n=6) for the group administered with the plasminogen fragment. […]
# [4] = tested on: bovine aorta endothelial (BAE) cells; experiment: Test for inhibitory activity to growth of vascular endothelial cells, bovine aorta endothelial cells; type: cell-based; set-up: dose or concentration left out as unconfirmed; details: cell count after 72 hours, plasminogen fragments
# Protocol: The activity of the plasminogen fragments was also estimated as described by O'Reilly et al. using bovine aorta endothelial (BAE) cells purchased from Sanko Jun-yaku K.K. BAE cells were cultured for maintenance on a 24-well plate (manufactured by Iwaki Glass K.K.) coated with gelatin in a DMEM basal medium containing 10% fetal calf serum (FCS), 3 ng/ml basic FGF (bFGF), 1% glutamine, 1% penicillin and 1% streptomycin at 5% CO2. BAE cells were plated on a 24-well gelatin-coated plate at 12,500 cells/well and cultured on the basal medium deprived of bFGF for 24 hours. […] contained 5% FCS but was deprived of bFGF and the plasminogen fragments were reacted with the cells at 37° C. for 20 minutes. A physiological saline was used as a negative control whereas angiostatin (Angiostatin, manufactured by Technoclone) was used as a positive control. After reaction, the basal medium containing 5% FCS and 2 ng/ml bFGF was added and the cells were cultured at 37° C. for additional 72 hours. The cells were peeled off the well with trypsin/EDTA solution and counted with Coulter counter (manufactured by Coulter).
# Lung cancer cells (LL/2) = experiment: Test for inhibitory activity to metastasis and growth of cancer (number of nodes on the lung surface); type: in vivo, mice
# Protocol: The protein fragments prepared as described above were dissolved in a physiological saline and used as a sample for animal tests. As a system for estimating an inhibitory effect to growth of metastasized cancerous focus, cancer capable of metastasis and growth was transplanted to mice where distally metastasized cancerous focus was observed. Lung cancer cells (LL/2; Dainippon Seiyaku K.K.) were subcutaneously transplanted to mice at the back. The animals were bred until a primary cancerous focus grows up to a predetermined size and the primary focus was then removed surgically. The sample was administered to mice intraperitoneally at 1 mg/mouse/day for 10 days. […]
# After completion of each test, mice were dissected. The number of nodes on the lung surface, in case of test for inhibitory activity to metastasis and growth of cancer, or a weight of the lung, for test for inhibitory activity to growth of metastasized cancerous focus, was measured respectively and compared with control groups (Mann Whetney U test). […] In test for inhibitory activity to growth of metastasized cancerous focus, the lung was measured 0.44±0.28 g (n=6) for the control group while it was measured 0.23±0.08 g (n=6) for the group administered with the plasminogen fragment.
molecule,measurement,setting,value
B1,safety in general pharmacological test (respiratory and circulatory organs),[1],confirmed for their safety
same,safety in single-dose toxicity test,[2],confirmed for their safety
same,weight of the lung,"[3]; 25 μg/animal intraperitoneally for 10 days, dissected Day 11",0.23 ± 0.08 g
same,weight of the lung,[3]; 1 mg/mouse/day intraperitoneally for 10 days,0.23 ± 0.08 g
same,inhibitory activity to growth of the vascular endothelial cells,[4],no inhibitory activity
same,inhibitory activity to growth of the vascular endothelial cells,[4]; listed as plasminogen fragment,inhibitory effects to its growth have not been obtained
same,number of nodes representing metastasis and growth of cancer,"Lung cancer cells (LL/2); 1 mg/mouse/day intraperitoneally for 10 days after removal of primary focus, n=6, control 6.3±0.2",2.1 ± 0.8
same,inhibitory activity to metastasis and growth of cancer cells,Lung cancer cells (LL/2); mouse model in which Lewis lung cancer was transplanted,had an inhibitory activity to metastasis and growth of cancer cells
